From patent US20210246166A1 (Bayer, published 2021)
Numbered stars: 1 amine (or outer) side, 2 acyl side, 3 side chain; on linkers, the order of the positions; unused ones are H or OH. Bridge positions count the residues as written; N and C are the ends. Square brackets hold non-standard residues; d marks the D form. Ends that are not written are not given here. * marks the point of attachment. (N-Benzyl)D = (2S)-2-Amino-4-(benzylamino)-4-oxobutanecarboxylic acid, O=C(C[C@H](N[*:1])C(=O)[*:2])NCc1ccccc1; X10 = (2R)‑2‑amino‑3‑(trifluoromethylsulfanyl)propanoic acid, O=C([C@H](CSC(F)(F)F)N[*:1])[*:2]; (3-Chloro-Ph)G = 3-chlorophenylglycine, O=C([C@@H](N[*:1])c1cccc(Cl)c1)[*:2]; Phe(2,5-diF) = O=C([C@H](Cc1cc(F)ccc1F)N[*:1])[*:2]; NH(CH2CH2O)4CH2CO = O=C(COCCOCCOCCOCCN[*:1])[*:2]; Pro(cis-4-CF3) = O=C(O)[C@@H]1C[C@H](C(F)(F)F)CN1; PEG9 = NCCOCCOCCOCCOCCOCCOCCOCCOCCOCCC(=O)O; Pro(4-spirocPr) = O=C(O)[C@@H]1CC2(CC2)CN1; C18 diacid = O=C(O)CCCCCCCCCCCCCCCCC(=O)*; Oic = O=C(O)[C@@H]1C[C@@H]2CCCC[C@@H]2N1; tBuAla = CC(C)(C)C[C@H](N)C(=O)O; Aad = N[C@@H](CCCC(=O)O)C(=O)O; Pen = CC(C)(S)[C@H](N)C(=O)O; PEG3 = NCCOCCOCCOCCC(=O)O; NMeA = CN[C@@H](C)C(=O)O; Orn = NCCC[C@H](N)C(=O)O; dβPro = D-beta-Proline; Sar = CNCC(=O)O

T1: Recombinant human MASP1 enzyme (fragment corresponding to amino acids 297-699, C-terminal His Tag) (human, UniProt P48740 297-699)
T1 sequence: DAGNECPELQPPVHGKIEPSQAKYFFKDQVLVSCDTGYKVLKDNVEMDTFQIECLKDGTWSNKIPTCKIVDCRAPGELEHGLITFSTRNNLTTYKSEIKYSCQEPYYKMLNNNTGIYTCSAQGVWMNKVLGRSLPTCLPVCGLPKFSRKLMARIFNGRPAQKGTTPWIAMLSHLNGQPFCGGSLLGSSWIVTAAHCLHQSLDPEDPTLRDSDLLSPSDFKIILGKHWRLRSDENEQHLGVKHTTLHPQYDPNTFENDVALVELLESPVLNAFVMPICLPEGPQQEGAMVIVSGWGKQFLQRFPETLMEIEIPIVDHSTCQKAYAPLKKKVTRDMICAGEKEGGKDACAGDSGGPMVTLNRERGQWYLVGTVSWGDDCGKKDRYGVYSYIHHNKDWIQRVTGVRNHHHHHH

T2: recombinant human MASP1 active protease (amino acids 297-699, C-terminal His Tag) (human, UniProt P48740 297-699)
T2 sequence: T1 sequence

B1: ((N-Me)G)-IC+SRSLP-(Oic)-I-(Pen)+IP-(AAD)-OH (peptide)
peptide: [Sar]ICSRSLP[Oic]I[Pen]IP[Aad]-OH
modifications: disulfide 3-11; N-terminus assumed
SMILES: CC[C@H](C)[C@H](NC(=O)CNC)C(=O)N[C@H]1CSSC(C)(C)[C@@H](C(=O)N[C@H](C(=O)N2CCC[C@H]2C(=O)N[C@@H](CCCC(=O)O)C(=O)O)[C@@H](C)CC)NC(=O)[C@H]([C@@H](C)CC)NC(=O)[C@@H]2C[C@@H]3CCCC[C@@H]3N2C(=O)[C@@H]2CCCN2C(=O)[C@H](CC(C)C)NC(=O)[C@H](CO)NC(=O)[C@H](CCCNC(=N)N)NC(=O)[C@H](CO)NC1=O
B2: ((N-Me)G)-IC+SRS-((2,5-Difluoro)F)-PPI-(Pen)+IPD-OH (peptide)
peptide: [Sar]ICSRS[Phe(2,5-diF)]PPI[Pen]IPD-OH
modifications: disulfide 3-11; N-terminus assumed
SMILES: CC[C@H](C)[C@H](NC(=O)CNC)C(=O)N[C@H]1CSSC(C)(C)[C@@H](C(=O)N[C@H](C(=O)N2CCC[C@H]2C(=O)N[C@@H](CC(=O)O)C(=O)O)[C@@H](C)CC)NC(=O)[C@H]([C@@H](C)CC)NC(=O)[C@@H]2CCCN2C(=O)[C@@H]2CCCN2C(=O)[C@H](Cc2cc(F)ccc2F)NC(=O)[C@H](CO)NC(=O)[C@H](CCCNC(=N)N)NC(=O)[C@H](CO)NC1=O
B3: ((N-Me)G)-IC+SRS-((2S)-2-Amino-5-methyl-hexanoic acid)-PPI-(Pen)+IPD-OH (peptide)
peptide: [Sar]ICSRS[(2S)‑2‑Amino‑5‑methyl‑hexanoic acid]PPI[Pen]IPD-OH
modifications: disulfide 3-11
B4: ((N-Me)G)-IC+SRS-(2-Amino-5,5,5-trifluoro-4-methyl-pentanoic acid)-PPI-(Pen)+IPD-OH (peptide)
peptide: [Sar]ICSRS[2‑Amino‑5,5,5‑trifluoro‑4‑methyl‑pentanoic acid]PPI[Pen]IPD-OH
modifications: disulfide 3-11
B5: AIC+SRSLP-((4-CF3)P)-IC+IPD-OH (peptide)
peptide: AICSRSLP[Pro(cis-4-CF3)]ICIPD-OH
modifications: disulfide 3-11; N-terminus assumed
SMILES: CC[C@H](C)[C@H](NC(=O)[C@H](C)N)C(=O)N[C@H]1CSSC[C@@H](C(=O)N[C@H](C(=O)N2CCC[C@H]2C(=O)N[C@@H](CC(=O)O)C(=O)O)[C@@H](C)CC)NC(=O)[C@H]([C@@H](C)CC)NC(=O)[C@@H]2C[C@H](C(F)(F)F)CN2C(=O)[C@@H]2CCCN2C(=O)[C@H](CC(C)C)NC(=O)[C@H](CO)NC(=O)[C@H](CCCNC(=N)N)NC(=O)[C@H](CO)NC1=O
B6: ((N-Me)G)-IC+SRS-((tBu)A)-PPI-(Pen)+IP-(PEG2(13 atoms))-OH (peptide)
peptide: [Sar]ICSRS[tBuAla]PPI[Pen]IP[PEG3]-OH
modifications: disulfide 3-11; N-terminus assumed
SMILES: CC[C@H](C)[C@H](NC(=O)CNC)C(=O)N[C@H]1CSSC(C)(C)[C@@H](C(=O)N[C@H](C(=O)N2CCC[C@H]2C(=O)NCCOCCOCCOCCC(=O)O)[C@@H](C)CC)NC(=O)[C@H]([C@@H](C)CC)NC(=O)[C@@H]2CCCN2C(=O)[C@@H]2CCCN2C(=O)[C@H](CC(C)(C)C)NC(=O)[C@H](CO)NC(=O)[C@H](CCCNC(=N)N)NC(=O)[C@H](CO)NC1=O
B7: ((N-Me)A)-IC+SRSLP-(Oic)-I-(Pen)+IP-((N-Benzyl)D)-NH2 (peptide)
peptide: [NMeA]ICSRSLP[Oic]I[Pen]IP[(N-Benzyl)D]-NH2
modifications: disulfide 3-11
B8: (beta-p)-IC+SRS-((tBu)A)-PPI-(Pen)+IPD-OH (peptide)
peptide: [dβPro]ICSRS[tBuAla]PPI[Pen]IPD-OH
modifications: disulfide 3-11
B9: (Orn)-IC+SRS-((2R)-2-amino-3-(trifluoromethylsulfanyl)propanoic acid)-PPI-(Pen)+IPD-OH (peptide)
peptide: [Orn]ICSRS[X10]PPI[Pen]IPD-OH
modifications: disulfide 3-11; N-terminus assumed
SMILES: CC[C@H](C)[C@H](NC(=O)[C@@H](N)CCCN)C(=O)N[C@H]1CSSC(C)(C)[C@@H](C(=O)N[C@H](C(=O)N2CCC[C@H]2C(=O)N[C@@H](CC(=O)O)C(=O)O)[C@@H](C)CC)NC(=O)[C@H]([C@@H](C)CC)NC(=O)[C@@H]2CCCN2C(=O)[C@@H]2CCCN2C(=O)[C@H](CSC(F)(F)F)NC(=O)[C@H](CO)NC(=O)[C@H](CCCNC(=N)N)NC(=O)[C@H](CO)NC1=O
B10: AIC+SRS-((tBu)A)-P-((4-CF3)P)-I-(Pen)+IPD-OH (peptide)
peptide: AICSRS[tBuAla]P[Pro(cis-4-CF3)]I[Pen]IPD-OH
modifications: disulfide 3-11; N-terminus assumed
SMILES: CC[C@H](C)[C@H](NC(=O)[C@H](C)N)C(=O)N[C@H]1CSSC(C)(C)[C@@H](C(=O)N[C@H](C(=O)N2CCC[C@H]2C(=O)N[C@@H](CC(=O)O)C(=O)O)[C@@H](C)CC)NC(=O)[C@H]([C@@H](C)CC)NC(=O)[C@@H]2C[C@H](C(F)(F)F)CN2C(=O)[C@@H]2CCCN2C(=O)[C@H](CC(C)(C)C)NC(=O)[C@H](CO)NC(=O)[C@H](CCCNC(=N)N)NC(=O)[C@H](CO)NC1=O
B11: AIC+SRSL-((1S,2S,5R)-3-Azabicyclo[3.1.0]hexane-2-carboxylic acid)-PI-(Pen)+IPD-OH (peptide)
peptide: AICSRSL[(1S,2S,5R)‑3‑Azabicyclo(3.1.0)hexane‑2‑carboxylic acid]PI[Pen]IPD-OH
modifications: disulfide 3-11
B12: (ODD)-AIC+SRSLP-(Oic)-I-(Pen)+IPD-(Orn)-OH (peptide)
peptide: {C18 diacid}-AICSRSLP[Oic]I[Pen]IPD[Orn]-OH
modifications: disulfide 3-11
SMILES: CC[C@H](C)[C@H](NC(=O)[C@H](C)NC(=O)CCCCCCCCCCCCCCCCC(=O)O)C(=O)N[C@H]1CSSC(C)(C)[C@@H](C(=O)N[C@H](C(=O)N2CCC[C@H]2C(=O)N[C@@H](CC(=O)O)C(=O)N[C@@H](CCCN)C(=O)O)[C@@H](C)CC)NC(=O)[C@H]([C@@H](C)CC)NC(=O)[C@@H]2C[C@@H]3CCCC[C@@H]3N2C(=O)[C@@H]2CCCN2C(=O)[C@H](CC(C)C)NC(=O)[C@H](CO)NC(=O)[C@H](CCCNC(=N)N)NC(=O)[C@H](CO)NC1=O
B13: AIC+SRSLPP-((3-Chloro-Ph)G)-C+IPD-OH (peptide)
peptide: AICSRSLPP[(3-Chloro-Ph)G]CIPD-OH
modifications: disulfide 3-11; N-terminus assumed
SMILES: CC[C@H](C)[C@H](NC(=O)[C@H](C)N)C(=O)N[C@H]1CSSC[C@@H](C(=O)N[C@H](C(=O)N2CCC[C@H]2C(=O)N[C@@H](CC(=O)O)C(=O)O)[C@@H](C)CC)NC(=O)[C@H](c2cccc(Cl)c2)NC(=O)[C@@H]2CCCN2C(=O)[C@@H]2CCCN2C(=O)[C@H](CC(C)C)NC(=O)[C@H](CO)NC(=O)[C@H](CCCNC(=N)N)NC(=O)[C@H](CO)NC1=O
B14: ((N-Me)G)-IC+SRS-((tBu)A)-PPI-(Pen)+IP-(PEG4-CH2CO2H(15 atoms))-OH (peptide)
peptide: [Sar]ICSRS[tBuAla]PPI[Pen]IP[NH(CH2CH2O)4CH2CO]-OH
modifications: disulfide 3-11; N-terminus assumed
SMILES: CC[C@H](C)[C@H](NC(=O)CNC)C(=O)N[C@H]1CSSC(C)(C)[C@@H](C(=O)N[C@H](C(=O)N2CCC[C@H]2C(=O)NCCOCCOCCOCCOCC(=O)O)[C@@H](C)CC)NC(=O)[C@H]([C@@H](C)CC)NC(=O)[C@@H]2CCCN2C(=O)[C@@H]2CCCN2C(=O)[C@H](CC(C)(C)C)NC(=O)[C@H](CO)NC(=O)[C@H](CCCNC(=N)N)NC(=O)[C@H](CO)NC1=O
B15: ((2S)-2-(morpholin-4-yl)propanoic acid)-IC+SRSLP-(Oic)-I-(Pen)+IPD-OH (peptide)
peptide: {(2S)‑2‑(morpholin-4-yl)propanoic acid}-ICSRSLP[Oic]I[Pen]IPD-OH
modifications: disulfide 2-10
B16: ((N-Me)G)-IC+SRS-((tBu)A)-PPI-(Pen)+IP-(PEG9(31 atoms))-NH2 (peptide)
peptide: [Sar]ICSRS[tBuAla]PPI[Pen]IP-{PEG9-NH2}
modifications: disulfide 3-11
B17: AIC+SRS-((tBu)A)-P-((6S)-5-Azaspiro[2.4]heptane-6-carboxylic acid)-I-(Pen)+IPD-NH2 (peptide)
peptide: AICSRS[tBuAla]P[Pro(4-spirocPr)]I[Pen]IPD-NH2
modifications: disulfide 3-11; N-terminus assumed
SMILES: CC[C@H](C)[C@H](NC(=O)[C@H](C)N)C(=O)N[C@H]1CSSC(C)(C)[C@@H](C(=O)N[C@H](C(=O)N2CCC[C@H]2C(=O)N[C@@H](CC(=O)O)C(N)=O)[C@@H](C)CC)NC(=O)[C@H]([C@@H](C)CC)NC(=O)[C@@H]2CC3(CC3)CN2C(=O)[C@@H]2CCCN2C(=O)[C@H](CC(C)(C)C)NC(=O)[C@H](CO)NC(=O)[C@H](CCCNC(=N)N)NC(=O)[C@H](CO)NC1=O

These binders were tested against T1, Recombinant human MASP1 enzyme … (assay: cell-based or functional assay).

Binder	human MASP1 IC50 [nM]
B1	7
B2	18
B3	65
B4	14
B5	7.5
B6	5.3
B7	12
B8	2.5
B9	3.1
B10	3.1
B11	1.7
B12	1000
B13	526
B14	6.2
B15	70

The binders below were run against Recombinant human MASP2 enzyme (fragment corresponding to amino acids 297-686, C-terminal His Tag) (human, UniProt O00187 297-686) (assay: cell-based or functional assay).
Chain of Recombinant human MASP2 enzyme (fragment corresponding to amino acids 297-686, C-terminal His Tag) (O00187 other isoform, or with tags, fused parts or gaps limits assumed): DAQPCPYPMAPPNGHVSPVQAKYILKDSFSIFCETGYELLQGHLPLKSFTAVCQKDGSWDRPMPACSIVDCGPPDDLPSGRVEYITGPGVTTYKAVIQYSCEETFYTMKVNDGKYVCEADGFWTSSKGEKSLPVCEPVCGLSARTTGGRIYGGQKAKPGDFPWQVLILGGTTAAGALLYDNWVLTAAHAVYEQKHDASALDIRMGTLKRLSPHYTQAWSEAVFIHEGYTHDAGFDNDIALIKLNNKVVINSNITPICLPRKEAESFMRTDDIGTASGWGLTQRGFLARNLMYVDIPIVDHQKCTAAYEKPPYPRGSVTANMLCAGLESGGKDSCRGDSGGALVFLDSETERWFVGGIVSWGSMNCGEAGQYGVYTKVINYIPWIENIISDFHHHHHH

Binder	human MASP2 IC50 [nM]
B1	150
B3	70
B4	330
B5	1000
B6	46
B10	510
B11	27
B12	1000
B13	1000
B14	76
B15	170

The binders below were run against T2, recombinant human MASP1 active protease … (assay: cell-based or functional assay).

Binder	human MASP1 IC50 [nM]
B16	1.8
B17	1.83

The binders below were run against recombinant human MASP2 active protease (amino acids 297-686, C-terminal His Tag) (human, UniProt O00187 297-686) (assay: cell-based or functional assay).
Chain of recombinant human MASP2 active protease (amino acids 297-686, C-terminal His Tag) (O00187 other isoform, or with tags, fused parts or gaps limits assumed): as above

Binder	human MASP2 IC50 [nM]
B16	73
B17	24.5
